Laboratory results as given in patent US20190241895.
pKd: −log10 of the molar value.

Tested on: secretory immunoglobulin A (sIgA) (Homo sapiens)
Test: SPR
[1] = KS9 (adenine-residue-modified T) at the T after GCAATCTCCCTAATC, 3' poly(dA)20 added for SPR, SPR buffer 1 mM MgCl2 pH 7.4
[2] = NG7 (guanine-residue-modified T) at underlined T i.e. T after GCAATCTCCCTAATC, 3' poly(dA)20 added for SPR, SPR buffer 1 mM MgCl2 pH 7.4
[3] = KS9 (adenine-residue-modified T) at T after the 5' primer region GGTTTGGACGCAATCTCCCTAATC, 3' poly(dA)20 added for SPR, SPR buffer 1 mM MgCl2 pH 7.4
[4] = MK4 (adenine-residue-modified dA) at A after the 5' primer region GGTTTGGACGCAATCTCCCTAATC, 3' poly(dT)20 added for SPR, SPR buffer 1 mM MgCl2 pH 7.4
[5] = NG7 (guanine-residue-modified T) at T after the 5' primer region GGTTTGGACGCAATCTCCCTAATC, 3' poly(dA)20 added for SPR, SPR buffer 1 mM MgCl2 pH 7.4

Sequence: GCAATCTCCCTAATCAAAGATATGCTAAGATAGATAGTTTGGCTTG [KS9 aptamer SEQ 19]
- pKd [1]: 8.10

Sequence: GCAATCTCCCTAATCGTATATCAAGCAGATGTGTTCACTTGGGGAG [KS9 aptamer SEQ 17]
- pKd [1]: 7.89

Sequence: GCAATCTCCCTAATCTGCTGATGTTTGTATTTCAAATTAGC [NG7 aptamer SEQ 15]
- pKd [2]: 8.59

Sequence: GCAATCTCCCTAATCTGCTGATGTTTGTATTTCAAATTAGCCGCAG [NG7 aptamer SEQ 14]
- pKd [2]: 8.00

Sequence: GCAATCTCCCTAATCTTTATACGTATGGACTTAGGCTTTGTTATAGAAAC [KS9 aptamer SEQ 21]
- pKd [1]: 8.68

Sequence: GGTTTGGACGCAATCTCCCTAATCAAAGATATGCTAAGATAGATAGTTTGGCTTGAAACTACAATGGGCGGGCTTATC [KS9 aptamer SEQ 9]
- pKd [3]: 8.32

Sequence: GGTTTGGACGCAATCTCCCTAATCAAGCCACGGAGAGTCCGAGGTGACCATTAAGCAGGAAACTACAATGGGCGGGCTTA [MK4 aptamer SEQ 3]
- pKd [4]: 8.12

Sequence: GGTTTGGACGCAATCTCCCTAATCACCTGTACTGGTTATTATGCCTGCCAACATGAAACTACAATGGGCGGGCTTATC [KS9 aptamer SEQ 10]
- pKd [3]: 7.52

Sequence: GGTTTGGACGCAATCTCCCTAATCAGACAATATTAGAGTGTTACCACCTGTGATGAAACTACAATGGGCGGGCTTATC [NG7 aptamer SEQ 7]
- pKd [5]: 7.42

Sequence: GGTTTGGACGCAATCTCCCTAATCAGATGATATCGAGATGCGAAGCGACCGCATGAAACTACAATGGGCGGGCTTATC [MK4 aptamer SEQ 2]
- pKd [4]: 8.12

Sequence: GGTTTGGACGCAATCTCCCTAATCCTATCTGTTTTATCAATTGTAGCAAGTTATGAAACTACAATGGGCGGGCTTATC [KS9 aptamer SEQ 12]
- pKd [3]: 8.05

Sequence: GGTTTGGACGCAATCTCCCTAATCGATCTAGATGGTCTCGGGTATGGCTAGATAGAAACTACAATGGGCGGGCTTATC [MK4 aptamer SEQ 4]
- pKd [4]: 7.76

Sequence: GGTTTGGACGCAATCTCCCTAATCGTATATCAAGCAGATGTGTTCACTTGGGGAGAAACTACAATGGGCGGGCTTATC [KS9 aptamer SEQ 8]
- pKd [3]: 8.00

Sequence: GGTTTGGACGCAATCTCCCTAATCTAAATAGATTTCACAGTGGATCCTTCAGAGGAAACTACAATGGGCGGGCTTATC [NG7 aptamer SEQ 6]
- pKd [5]: 7.94

Sequence: GGTTTGGACGCAATCTCCCTAATCTACTACGATATCCAGATGGGAAGTGACCGTGAAACTACAATGGGCGGGCTTATC [MK4 aptamer SEQ 1]
- pKd (MK4 (adenine-residue-modified dA) at A after the 5' primer region GGTTTGGACGCAATCTCCCTAATC, 3' poly(dT)20 added for SPR, 40 mM HEPES, 125 mM NaCl, 5 mM KCl, 1 mM MgCl2, 0.01% Tween 20, pH 7.4): 8.07

Sequence: GGTTTGGACGCAATCTCCCTAATCTGCTGATGTTTGTATTTCAAATTAGCCGCAGAAACTACAATGGGCGGGCTTATC [NG7 aptamer SEQ 5]
- pKd [5]: 7.93

Sequence: GGTTTGGACGCAATCTCCCTAATCTTTATACGTATGGACTTAGGCTTTGTTATAGAAACTACAATGGGCGGGCTTATC [KS9 aptamer SEQ 11]
- pKd [3]: 8.89
